This passage reports binding result and Kd results from patent publication US20190194358A1 (ARIZONA BOARD OF REGENTS A BODY CORPORATE OF THE STATE OF …, published 2019).

Ends that are not written are not given here.

Broadly, the Kd is the free concentration of one partner at which half of the binding sites on the other are occupied at equilibrium, for simple one-to-one binding.

The target of experiment [1] is T1, LACRT (human, UniProt Q9GZZ8).
T1 construct: GST fusion on the array
T1 sequence (looked up): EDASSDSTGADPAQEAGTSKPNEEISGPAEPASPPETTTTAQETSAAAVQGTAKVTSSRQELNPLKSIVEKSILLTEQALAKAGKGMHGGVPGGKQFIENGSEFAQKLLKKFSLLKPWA
Put plainly: Invitrogen ProtoArray Human Protein Microarray v4.0; biotinylated synbody, fluorescently labelled streptavidin; fluorescence intensity above background.
Protocol: (§1) The prescribed cover slip was placed over the array and adjusted to remove air bubbles. The array was incubated in a 50 ml conical tube, printed side up, for 1.5 hours at 4 C without shaking. The array was then removed from the conical tube inserted diagonally into the array chamber, kept on ice. 8 ml probing buffer was added to the chamber wall. The cover slip was removed and the array was incubated in probing buffer for 1 minute on ice. The probing buffer was decanted and drained. Two further washings were performed adding 8 ml probing buffer, incubating on ice for 1 minute, and decanting and draining. 5 nM fluorescently labeled streptavidin diluted in 6 ml probing buffer was incubated on the array for 30 minutes on ice in the dark, after which the solution was decanted and drained. Three wash steps were performed, each by adding 8 ml probing buffer, incubating for 1 minute on ice, decanting, and draining. The array was removed from the chamber, centrifuged at 800×g for 5 minutes at room temperature. The array was dried in the dark for 60 minutes at room temperature, after which it was scanned using a fluorescent microarray scanner and data was taken and analyzed.

The target in experiment [2] is T2, PTK2 (human, UniProt Q05397).
T2 construct: GST fusion on the array
T2 sequence (Q05397 whole entry, the tested form may be a part): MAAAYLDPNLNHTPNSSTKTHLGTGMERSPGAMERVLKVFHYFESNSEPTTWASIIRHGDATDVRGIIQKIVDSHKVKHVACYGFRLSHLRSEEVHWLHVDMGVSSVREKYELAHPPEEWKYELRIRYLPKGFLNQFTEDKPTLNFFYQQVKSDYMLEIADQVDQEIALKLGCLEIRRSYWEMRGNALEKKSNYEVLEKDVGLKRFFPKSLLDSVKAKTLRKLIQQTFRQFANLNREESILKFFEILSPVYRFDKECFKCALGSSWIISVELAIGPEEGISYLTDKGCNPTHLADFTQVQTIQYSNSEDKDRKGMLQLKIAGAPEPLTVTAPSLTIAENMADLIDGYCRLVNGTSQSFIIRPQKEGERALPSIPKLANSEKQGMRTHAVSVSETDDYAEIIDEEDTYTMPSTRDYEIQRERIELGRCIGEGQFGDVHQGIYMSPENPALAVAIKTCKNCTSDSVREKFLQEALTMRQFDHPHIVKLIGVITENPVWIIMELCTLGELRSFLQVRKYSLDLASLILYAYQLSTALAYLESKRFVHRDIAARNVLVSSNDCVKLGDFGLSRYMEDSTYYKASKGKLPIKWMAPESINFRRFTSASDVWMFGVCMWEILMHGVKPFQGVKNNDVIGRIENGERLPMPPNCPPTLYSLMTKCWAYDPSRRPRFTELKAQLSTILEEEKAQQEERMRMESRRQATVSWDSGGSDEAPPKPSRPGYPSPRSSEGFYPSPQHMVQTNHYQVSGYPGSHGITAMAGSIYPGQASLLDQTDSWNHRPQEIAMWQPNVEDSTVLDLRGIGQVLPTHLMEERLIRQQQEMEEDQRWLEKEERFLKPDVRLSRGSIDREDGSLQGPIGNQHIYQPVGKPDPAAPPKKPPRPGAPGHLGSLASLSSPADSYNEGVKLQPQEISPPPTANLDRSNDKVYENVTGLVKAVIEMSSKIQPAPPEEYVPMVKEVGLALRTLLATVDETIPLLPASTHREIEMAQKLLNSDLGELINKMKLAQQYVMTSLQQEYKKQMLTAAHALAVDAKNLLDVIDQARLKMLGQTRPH
The description is as above.
Protocol: as §1

In experiment [3] the target is T3, ANXA1 (human, UniProt P04083).
T3 construct: GST fusion on the array
T3 sequence (looked up): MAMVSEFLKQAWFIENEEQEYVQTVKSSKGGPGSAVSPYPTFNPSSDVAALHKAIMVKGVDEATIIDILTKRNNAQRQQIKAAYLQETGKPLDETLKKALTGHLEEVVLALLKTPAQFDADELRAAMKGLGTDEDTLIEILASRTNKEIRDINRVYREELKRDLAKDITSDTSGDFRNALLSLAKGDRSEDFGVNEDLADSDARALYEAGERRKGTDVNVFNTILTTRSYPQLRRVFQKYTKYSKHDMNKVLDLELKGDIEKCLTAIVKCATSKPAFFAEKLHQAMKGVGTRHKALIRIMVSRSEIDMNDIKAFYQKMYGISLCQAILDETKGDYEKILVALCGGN
Described as above.
Protocol: as §1

For experiment [4], the target named is T4, PRKAA1 (human, UniProt Q13131).
T4 construct: GST fusion on the array
T4 sequence (Q13131 whole entry, the tested form may be a part): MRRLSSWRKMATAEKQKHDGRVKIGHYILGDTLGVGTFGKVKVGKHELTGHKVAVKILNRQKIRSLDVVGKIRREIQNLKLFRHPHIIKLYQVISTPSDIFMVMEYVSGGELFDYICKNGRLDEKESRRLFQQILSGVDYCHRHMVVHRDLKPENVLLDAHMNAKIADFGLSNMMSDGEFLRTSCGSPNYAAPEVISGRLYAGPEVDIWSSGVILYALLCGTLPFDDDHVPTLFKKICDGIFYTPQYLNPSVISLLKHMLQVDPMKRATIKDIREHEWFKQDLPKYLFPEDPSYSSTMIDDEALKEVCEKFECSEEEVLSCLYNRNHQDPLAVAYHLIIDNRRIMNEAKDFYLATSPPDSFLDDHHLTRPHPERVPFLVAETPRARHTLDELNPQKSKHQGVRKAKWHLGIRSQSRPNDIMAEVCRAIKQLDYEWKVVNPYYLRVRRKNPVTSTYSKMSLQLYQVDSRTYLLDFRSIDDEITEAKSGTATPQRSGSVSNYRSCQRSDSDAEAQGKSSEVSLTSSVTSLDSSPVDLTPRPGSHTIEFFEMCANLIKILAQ
The experiment is described as above.
Protocol: as §1

Experiment [5] has as its target T5, NADK (human, UniProt O95544).
T5 construct: GST fusion on the array
T5 sequence (looked up): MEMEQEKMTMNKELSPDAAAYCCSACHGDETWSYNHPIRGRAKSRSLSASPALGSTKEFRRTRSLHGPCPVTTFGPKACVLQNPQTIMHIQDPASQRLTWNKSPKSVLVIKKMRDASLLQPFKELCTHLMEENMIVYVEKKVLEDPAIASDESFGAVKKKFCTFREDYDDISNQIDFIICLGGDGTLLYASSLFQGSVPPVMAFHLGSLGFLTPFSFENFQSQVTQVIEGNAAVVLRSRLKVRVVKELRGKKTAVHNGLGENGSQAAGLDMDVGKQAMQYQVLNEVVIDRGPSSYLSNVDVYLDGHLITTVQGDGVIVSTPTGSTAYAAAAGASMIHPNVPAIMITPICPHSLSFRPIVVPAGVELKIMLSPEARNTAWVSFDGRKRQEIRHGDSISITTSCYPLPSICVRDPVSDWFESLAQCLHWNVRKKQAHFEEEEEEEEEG
The description is as above.
Protocol: as §1

Experiment [6] concerns the target T6, ABHD14B (human, UniProt Q96IU4).
T6 construct: GST fusion on the array
T6 sequence (looked up): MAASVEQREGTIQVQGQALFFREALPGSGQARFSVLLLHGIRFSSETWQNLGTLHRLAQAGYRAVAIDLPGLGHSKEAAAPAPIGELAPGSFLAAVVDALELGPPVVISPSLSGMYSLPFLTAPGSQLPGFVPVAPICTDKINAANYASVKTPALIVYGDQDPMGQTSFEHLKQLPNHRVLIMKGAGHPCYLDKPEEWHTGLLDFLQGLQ
The description is as above.
Protocol: as §1

Experiment [7] deals with T7, ROCK2 (human, UniProt O75116).
T7 construct: GST fusion on the array
T7 sequence (O75116 1-552 limits assumed): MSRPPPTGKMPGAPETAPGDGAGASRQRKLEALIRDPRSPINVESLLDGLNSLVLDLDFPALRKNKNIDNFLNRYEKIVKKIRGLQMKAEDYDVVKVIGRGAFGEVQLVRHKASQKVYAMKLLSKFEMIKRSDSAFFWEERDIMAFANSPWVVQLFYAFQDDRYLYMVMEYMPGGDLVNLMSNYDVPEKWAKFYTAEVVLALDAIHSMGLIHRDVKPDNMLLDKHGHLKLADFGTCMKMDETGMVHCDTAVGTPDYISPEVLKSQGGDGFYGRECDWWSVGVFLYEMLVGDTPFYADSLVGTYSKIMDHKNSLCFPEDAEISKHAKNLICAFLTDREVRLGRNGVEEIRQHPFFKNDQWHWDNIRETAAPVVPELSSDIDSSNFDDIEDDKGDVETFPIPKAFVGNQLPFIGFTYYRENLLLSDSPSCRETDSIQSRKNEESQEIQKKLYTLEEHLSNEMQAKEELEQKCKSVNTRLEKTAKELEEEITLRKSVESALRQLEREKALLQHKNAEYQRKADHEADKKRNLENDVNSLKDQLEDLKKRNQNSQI
The experiment is described as above.
Protocol: as §1

Experiment [8] concerns the target T8, transferrin (human, UniProt P02787 20-698).
T8 construct: also called TRF; pooled human transferrin (Sigma)
Put plainly: SPR.

Experiment [9] deals with T9, AKT1 (human, UniProt P31749 1-480, limits assumed).
T9 construct: GST fusion on the Protoarray; also called AKT1_HUMAN; human AKT1
T9 sequence (P31749 whole entry, the tested form may be a part): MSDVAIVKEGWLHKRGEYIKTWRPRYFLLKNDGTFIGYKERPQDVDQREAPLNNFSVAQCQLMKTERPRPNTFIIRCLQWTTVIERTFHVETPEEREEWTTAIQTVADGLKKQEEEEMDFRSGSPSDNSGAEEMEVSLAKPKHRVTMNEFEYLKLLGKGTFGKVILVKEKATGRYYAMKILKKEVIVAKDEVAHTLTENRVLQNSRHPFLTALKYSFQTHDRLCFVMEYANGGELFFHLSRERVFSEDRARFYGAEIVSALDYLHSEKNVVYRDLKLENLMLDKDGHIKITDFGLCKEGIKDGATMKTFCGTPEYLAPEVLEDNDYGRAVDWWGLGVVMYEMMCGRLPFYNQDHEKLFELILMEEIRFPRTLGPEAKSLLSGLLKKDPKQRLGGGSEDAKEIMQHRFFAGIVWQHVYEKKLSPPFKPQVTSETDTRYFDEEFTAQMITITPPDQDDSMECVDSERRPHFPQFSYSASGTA
Briefly: SPR.

T8 sequence (P02787 20-698 limits assumed): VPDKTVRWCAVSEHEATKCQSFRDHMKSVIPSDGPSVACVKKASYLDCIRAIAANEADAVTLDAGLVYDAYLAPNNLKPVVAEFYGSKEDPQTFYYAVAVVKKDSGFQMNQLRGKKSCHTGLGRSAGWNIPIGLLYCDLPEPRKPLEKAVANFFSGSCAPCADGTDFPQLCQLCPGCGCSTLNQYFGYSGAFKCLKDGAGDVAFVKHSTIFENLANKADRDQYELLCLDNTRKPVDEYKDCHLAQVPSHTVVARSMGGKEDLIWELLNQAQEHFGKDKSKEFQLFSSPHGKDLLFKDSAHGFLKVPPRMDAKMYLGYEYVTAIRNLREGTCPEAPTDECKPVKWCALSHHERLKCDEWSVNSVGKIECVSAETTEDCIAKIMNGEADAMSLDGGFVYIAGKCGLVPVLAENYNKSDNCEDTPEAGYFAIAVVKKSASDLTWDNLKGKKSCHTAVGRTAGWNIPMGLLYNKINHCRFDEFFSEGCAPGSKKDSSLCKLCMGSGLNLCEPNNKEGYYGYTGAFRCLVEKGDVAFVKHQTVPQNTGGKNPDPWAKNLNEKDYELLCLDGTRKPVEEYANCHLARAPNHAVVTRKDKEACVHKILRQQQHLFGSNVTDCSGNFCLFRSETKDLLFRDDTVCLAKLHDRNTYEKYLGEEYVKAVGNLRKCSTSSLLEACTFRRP

B1: SYN23-26 (designed binder)
peptide 1: AHKVVPQRQIRHAYNRYGSG
peptide 2: FRGWAHIFFGPHVIYRGGSG
modifications: also: two chains joined by their C-termini to a branching Lys (epsilon/alpha N), Lys linker followed by Cys, Cys thiol biotinylated
notes: Lysine linker followed by cysteine; the thiol of the cysteine biotinylated for the protein array; also called anti-TRF synbody
For the molecule B1, the binding result in [1] is reported as “no binding”; in [2], “no binding”; in experiment [3], “binds”; in experiment [4] it was “no binding”; in [5], “no binding”; in experiment [6], “no binding”. Besides, the binding result in [7] is given as “no binding”. For the same molecule, the Kd in experiment [8] was approximately 141 nM; in experiment [9], approximately 1 nM.
